From patent US5928915A, “CHO cell sialidase by recombinant DNA technology” (Genentech, Inc., priority 1997, dated 1999)

Experiments:
Experiment in all cases: Sialidase kinetic constants with soluble sialylglycoconjugate substrates
Assay type in all cases: biochemical, Chinese hamster
Conditions in all cases: other: apparent; standard assay conditions; average of duplicates, relative error about 10%; 37.0 °C
[1] = substrate: CC(=O)N[C@H]1[C@H]([C@H](O)[C@H](O)CO)O[C@@](OC[C@H]2O[C@@H](O[C@H]3[C@H](O)[C@@H](O)C(O)O[C@@H]3CO)[C@H](O)[C@@H](O)[C@H]2O)(C(=O)O)C[C@@H]1O
Experimental: (§1) Fluorescent sialidase assays: Standard assay conditions for monitoring the enzyme activity during purification using the fluorescent substrate analog are: 1.3 mM 4-MUNeu5Ac, 50 mM phosphate buffer, pH 6.8, 0.3 mg bovine serum albumin and varying amounts of enzyme in a total volume of 30 μl. After addition of enzyme the samples are incubated at 37° C. in a shaking water bath for 5 minutes. The reaction is terminated and the fluorescence of the liberated umbelliferone is enhanced by the addition of 2 ml of 80 mM glycine-carbonate buffer, pH 9.7. Quantification of the product is made by measuring the fluorescence of the samples with excitation at 365 nm and emission at 450 nm using a standard of 4-methyl umbelliferone. A unit of enzyme activity is defined as a μmol/min of sialic acid liberated.
(§2) Sialidase assays with natural substrates: When natural substrates are tested with the purified enzyme, the amount of released sialic acid is measured using the thiobarbituric acid assay as modified by Uchida [Uchida et al. J. Biochem., 82:1425 (1977)] using sialic acid as standard. The amount of sialic acid in control samples, which include a complete assay mixture incubated without added enzyme is subtracted from each determination. All samples are cleared by centrifugation (1,000×G, 10 min) prior to determining the absorbance at 540 nm.
(§3) Enzyme kinetic parameters: Assay conditions (time and added enzyme) are modified for each substrate so that initial reaction rates are measured. Kinetic parameters are obtained from double reciprocal plots of the substrate saturation curves [Segel, I. H. John Wiley, New York, Enzyme Kinetics, 18 (1975)].

[2] = substrate: CC(=O)N[C@H]1[C@H]([C@H](O)[C@H](O)CO)O[C@@](O[C@H](CO)[C@@H](O)[C@@H]2OC(O)(C(=O)O)C[C@H](O)[C@H]2NC(C)=O)(C(=O)O)C[C@@H]1O
Experimental: as §1, §2, §3

[3] = substrate: CC(=O)N[C@H]1[C@H]([C@H](O)[C@H](O)CO)O[C@@](O[C@H]2[C@@H](O)[C@@H](CO)O[C@@H](O[C@H]3[C@H](O)[C@@H](O)C(O)O[C@@H]3CO)[C@@H]2O)(C(=O)O)C[C@@H]1O
Experimental: as §1, §2, §3

[4] = substrate: CC(=O)N[C@H]1[C@H]([C@H](O)[C@H](O)CO)O[C@@](Oc2ccc3c(C)cc(=O)oc3c2)(C(=O)O)C[C@@H]1O
Experimental: as §1, §2, §3

B1: CHO cell sialidase (Cricetulus griseus) (protein)
chain: MATCPVLQKETLFQTGDYAYRIPALIYLSKQKTLLAFAEKRLTKTDEHADLFVLRRGSYNADTHQVQWQAEEVVTQAYLEGHRSMSPCPLYDKQTRTLFLFFIAVRGQISEHHQLQTGVNVTRLCHITSTDHGKTWSAVQDLTDTTIGSTHQDWATFGVGPGHCLQLRNTAGSLLVPAYAYRKQPPIHAPAPSAFCFLSHDHGSTWELGHFVSQNSLECQVAEVGTGAERVVYLNARSCLGARVQAQSPNSGLDFQDNQVVSKLVEPPKGCHGSVIAFPNPTSKADALDVWLLYTHPTDSRKRTNLGVYLNQKPLDPTTWSAPTLLATGICAYSDLQNMGHGPDGSPQFGCLYESNNYEEIVFLMFTLKQAFPAVFGAQ
notes: The sialidase described was purified from the cell culture fluid of a single production cell line (CHO 14.16); endogenous in cells; host or cells: CHO 14.16 cells (purified from the cell culture fluid)
Km [1]: 1200 µM | Vmax [1]: 4 µmol/min/mg | Km [2]: 3400 µM | Vmax [2]: 11 µmol/min/mg | Km [3]: 1300 µM | Vmax [3]: 16 µmol/min/mg | Km [4]: 400 µM | Vmax [4]: 18 µmol/min/mg
